# Experimental data taken from patent US10731195B2, “Methods for the enzymatic modification of steviol glycosides, modified steviol glycosides obtainable thereby, and the use thereof as sweeteners” (Rijksuniversiteit Groningen, priority 2015, dated 2020).
# Positions count from the first letter of the chain named. Names and notes keep the numbering of the source. Read-outs that look alike come from different tables or passages of the source.
# B1: GTF180-ΔN: N-terminal truncated GTF180 (AY697430) of Lactobacillus reuteri 180; Met-Gly-742-1772-His6 (protein, listed as Lactobacillus reuteri)
# chain: MGINGQQYYIDPTTGQPRKNFLLQNGNDWIYFDKDTGAGTNALKLQFDKGTISADEQYRRGNEAYSYDDKSIENVNGYLTADTWYRPKQILKDGTTWTDSKETDMRPILMVWWPNTVTQAYYLNYMKQYGNLLPASLPSFSTDADSAELNHYSELVQQNIEKRISETGSTDWLRTLMHEFVTKNSMWNKDSENVDYGGLQLQGGFLKYVNSDLTKYANSDWRLMNRTATNIDGKNYGGAEFLLANDIDNSNPVVQAEELNWLYYLMNFGTITGNNPEANFDGIRVDAVDNVDVDLLSIARDYFNAAYNMEQSDASANKHINILEDWGWDDPAYVNKIGNPQLTMDDRLRNAIMDTLSGAPDKNQALNKLITQSLVNRANDNTENAVIPSYNFVRAHDSNAQDQIRQAIQAATGKPYGEFNLDDEKKGMEAYINDQNSTNKKWNLYNMPSAYTILLTNKDSVPRVYYGDLYQDGGQYMEHKTRYFDTITNLLKTRVKYVAGGQTMSVDKNGILTNVRFGKGAMNATDTGTDETRTEGIGVVISNNTNLKLNDGESVVLHMGAAHKNQKYRAVILTTEDGVKNYTNDTDAPVAYTDANGDLHFTNTNLDGQQYTAVRGYANPDVTGYLAVWVPAGAADDQDARTAPSDEAHTTKTAYRSNAALDSNVIYEGFSNFIYWPTTESERTNVRIAQNADLFKSWGITTFELAPQYNSSKDGTFLDSIIDNGYAFTDRYDLGMSTPNKYGSDEDLRNALQALHKAGLQAIADWVPDQIYNLPGKEAVTVTRSDDHGTTWEVSPIKNVVYITNTIGGGEYQKKYGGEFLDTLQKEYPQLFSQVYPVTQTTIDPSVKIKEWSAKYFNGTNILHRGAGYVLRSNDGKYYNLGTSTQQFLPSQLSVQDNEGYGFVKEGNNYHYYDENKQMVKDAFIQDSVGNWYYLDKNGNMVANQSPVEISSNGASGTYLFLNNGTSFRSGLVKTDAGTYYYDGDGRMVRNQTVSDGAMTYVLDENGKLVSESFDSSATEAHPLKPGDLNGQK
# B2: GTF180-ΔN-XM2: single amino acid mutant (W1065L) of GTF180-ΔN (protein, listed as Lactobacillus reuteri)
# chain: B1 chain with W326L
# Columns and labels:
# [1] = cited from earlier work
# [2] = Time course of Rebaudioside A utilization and RebAG1 formation (NP-HPLC); assay type: biochemical; settings: 1000 mM sucrose, 10 U/mL enzyme
# Method: (§1) Incubation reactions were performed in 25 mM sodium acetate (pH 4.7), 1 mM CaCl2, 50 to 1,000 mM sucrose, 50-100 mM steviol glycoside, and 2-30 U/mL purified GTF180-ΔN enzyme or GTF180-ΔN mutant enzyme at 37° C. for 15 min to 24 hours. Reactions were stopped by heat inactivation (100° C. for 15 min). From the inactivated samples 250 uL was mixed with 1000 ul of 10 mM catechol (internal standard) and subsequently purified by solid phase extraction using Strata-X 33u Polymeric Reversed Phase columns (Phenomenex). For HPLC analysis 20 μL of the purified sample was injected on a Luna 10 μm NH2 chromatography column (250 mm×4.6 mm; Phenomenex). Reaction components were separated at a flow-rate of 1 mL/min under gradient elution conditions, starting with a 2 min isocratic step of 70% solvent A followed by a linear gradient from 70 to 55% solvent A over 9 min (solvent A=acetonitrile; solvent B=0.025% acetic acid). Rebaudioside A and the mono-α-glucosylated Rebaudioside A product concentrations were determined with NP-HPLC, using their corresponding calibration curves ranging from 1.56 to 50 mM. All data were normalized with catechol as internal standard. The standard deviation of the response was less than 5%. […]
# [3] = Isolation and structural analysis (NMR, methylation analysis) of α-glucosylated Rebaudioside A products; assay type: biochemical; settings: 10 U/mL enzyme, 50 mM Rebaudioside A, 2 x 1000 mM sucrose, 24 hours
# Method: For quantitative synthesis of α-glucosylated Rebaudioside A products using GTF180-ΔN and its derived mutants, incubations were performed in 5 mL 25 mM sodium acetate (pH 4.7), 1 mM CaCl2, 50 mM steviol glycoside with two batches of 1,000 mM equivalent of sucrose donor (t=0 and 3 h) to a total of 2,000 mM sucrose, using 10 U/mL enzyme at 37° C. for 24 hours. Products were purified from the incubation mixture by solid phase extraction using Strata-X 33u Polymeric Reversed Phase columns (Phenomenex). Products were separated on a Luna 10 μm NH2 semi-preparative chromatography column (250 mm×10 mm, Phenomenex) and were manually collected at a flow-rate of 4.6 mL/min, starting with a 2 min isocratic step of 80% solvent A followed by a linear gradient of 80 to 50% solvent A over 38 min (solvent A=acetonitrile; solvent B=0.025% acetic acid). The solvent of the collected fractions was evaporated under a stream of nitrogen gas and the dried materials were dissolved in deionized water.
# Resolution-enhanced 1D/2D 500-MHz ^1H NMR spectra were recorded in D2O on a Bruker DRX-500 spectrometer (Bijvoet Center, Department of NMR Spectroscopy, Utrecht University) at a probe temperature of 334K. Data acquisition and processing were done with Bruker Topspin 2.1. Prior to analysis, samples were exchanged twice in D2O (99.9 atom % D, Cambridge Isotope Laboratories, Inc., Andover, Mass.) with intermediate lyophilization, and then dissolved in 0.6 mL D2O. […] The 2D TOCSY spectra were recorded using an MLEV-17 (composite pulse devised by Levitt et al (1982)) mixing sequence with spin-lock times of 40-200 ms. The 2D ROESY spectra were recorded using standard Bruker XWINNMR software with mixing time of 200 ms. […] Natural abundance 2D ^13C-^1H HSQC experiments (^1H frequency 500.0821 MHz, ^13C frequency 125.7552 MHz) were recorded without decoupling during acquisition of the ^1H FID. […]
# [4] = Polymerization (oligosaccharide and glucan formation from sucrose) activity; assay type: biochemical; settings: data not shown
# Method: Over a hundred glucan and fructansucrase wild type and mutant enzymes, mostly from Lactobacillus reuteri, were screened for Rebaudioside A α-glucosylation. For this, enzymes were incubated in 50 mM Rebaudioside A (FIG. 1) and 1000 mM sucrose for 3 hours. […] This is a clear advantage during downstream processing, the purification of the α-glucosylated Rebaudioside A products from mono- and disaccharides, oligosaccharides and glucans. By eliminating α-glucan synthesis, the most important side reaction, higher glycosylation yields were obtained for Rebaudioside A. At lower sucrose concentration (200 mM), these mutants had similar or even higher transglucosylating activity with Rebaudioside A than GTF180-ΔN and mutants S1137Y and Q1140E (data not shown).
# [5] = Screening glucan and fructansucrase enzymes for α-glucosylation of Rebaudioside A; assay type: biochemical; settings: compared to GTF180-ΔN where comparative
# Method: as §1
# [6] = in water and in carbonated beverage base
molecule,measurement,setting,value
C=C1C[C@@]23CC[C@H]4[C@@](C)(CCC[C@@]4(C)C(=O)O[C@@H]4O[C@H](CO)[C@@H](O)[C@H](O)[C@H]4O[C@@H]4O[C@H](CO)[C@@H](O)[C@H](O)[C@H]4O)[C@@H]2CC[C@]1(O[C@@H]1O[C@H](CO)[C@@H](O)[C@H](O[C@@H]2O[C@H](CO)[C@@H](O)[C@H](O)[C@H]2O)[C@H]1O[C@@H]1O[C@H](CO)[C@@H](O)[C@H](O)[C@H]1O)C3 [Rebaudioside D],bitterness compared to Rebaudioside A,[1]; [6],decreased bitterness
same,sweetness compared to Rebaudioside A,[1]; [6],increased sweetness
C=C1C[C@@]23CC[C@H]4[C@@](C)(CCC[C@@]4(C)C(=O)O[C@@H]4O[C@H](CO)[C@@H](O)[C@H](O[C@@H]5O[C@H](CO)[C@@H](O)[C@H](O)[C@H]5O)[C@H]4O[C@@H]4O[C@H](CO)[C@@H](O)[C@H](O)[C@H]4O)[C@@H]2CC[C@]1(O[C@@H]1O[C@H](CO)[C@@H](O)[C@H](O[C@@H]2O[C@H](CO)[C@@H](O)[C@H](O)[C@H]2O)[C@H]1O[C@@H]1O[C@H](CO)[C@@H](O)[C@H](O)[C@H]1O)C3 [Rebaudioside M],bitterness compared to Rebaudioside A,[1]; in acidified water,reduced bitterness
same,sweetness compared to Rebaudioside A,[1]; in acidified water,higher sweetness
same,bitterness compared to Rebaudioside A,[1]; in water solution,reduced bitterness
B1,Rebaudioside A conversion,[2]; 50 mM Rebaudioside A,55%
same,RebAG1 formed from 50 mM Rebaudioside A,[2],~13 mM
same,share of di-glucosylated Rebaudioside A product elongated with an (α1→3)-linked glucose,[3],~75%
same,share of di-glucosylated Rebaudioside A product elongated with another (α1→6)-linked glucose,[3],~25%
same,share of mono-α-glucosylated product with (α1→6)-linked glucose at the C-19 β-linked glucose,[3],100%
B2,polymerization (oligosaccharide and glucan formation) activity,[4],almost no polymerization
same,α-glucosylation / transglucosylating activity towards Rebaudioside A (in words),[5],able to α-glucosylate Rebaudioside A
